T1: FcgRIIb (human, UniProt P31994)
T1 chain: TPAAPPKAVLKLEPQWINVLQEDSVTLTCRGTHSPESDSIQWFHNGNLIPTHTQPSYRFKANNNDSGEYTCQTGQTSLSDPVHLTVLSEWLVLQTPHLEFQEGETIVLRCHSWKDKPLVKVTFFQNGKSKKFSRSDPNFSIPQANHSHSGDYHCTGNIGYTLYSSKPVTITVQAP

T2: FcgRIIa R (human, UniProt P12318)
T2 chain: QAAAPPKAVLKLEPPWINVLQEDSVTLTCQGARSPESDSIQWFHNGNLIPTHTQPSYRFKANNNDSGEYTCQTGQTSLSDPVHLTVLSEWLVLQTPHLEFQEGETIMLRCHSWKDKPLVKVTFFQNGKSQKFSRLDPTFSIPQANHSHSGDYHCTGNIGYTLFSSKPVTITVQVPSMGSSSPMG

T3: FcgRIIa H (human, UniProt P12318)
T3 chain: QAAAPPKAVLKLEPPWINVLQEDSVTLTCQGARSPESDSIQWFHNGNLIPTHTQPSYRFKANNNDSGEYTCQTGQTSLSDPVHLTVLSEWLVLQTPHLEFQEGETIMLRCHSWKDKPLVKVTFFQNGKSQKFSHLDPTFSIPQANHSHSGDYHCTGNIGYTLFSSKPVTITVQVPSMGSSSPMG

T4: FcgRIa (human, UniProt P12314)
T4 chain: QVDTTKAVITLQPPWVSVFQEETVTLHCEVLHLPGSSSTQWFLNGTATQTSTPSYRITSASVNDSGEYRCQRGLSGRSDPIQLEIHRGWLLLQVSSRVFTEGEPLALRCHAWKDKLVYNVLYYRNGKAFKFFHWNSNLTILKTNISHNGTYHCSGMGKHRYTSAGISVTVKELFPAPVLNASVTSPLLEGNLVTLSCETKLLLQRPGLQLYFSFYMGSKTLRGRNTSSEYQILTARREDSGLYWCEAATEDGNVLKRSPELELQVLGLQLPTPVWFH


Experiments:
Test in all cases: SPR
FcgRIIb = molecular target: T1, FcgRIIb
FcgRIIa R = molecular target: T2, FcgRIIa R
FcgRIIIa F = FcgRIIIa F (human, UniProt P08637)
Sequence of FcgRIIIa F (P08637 17-208): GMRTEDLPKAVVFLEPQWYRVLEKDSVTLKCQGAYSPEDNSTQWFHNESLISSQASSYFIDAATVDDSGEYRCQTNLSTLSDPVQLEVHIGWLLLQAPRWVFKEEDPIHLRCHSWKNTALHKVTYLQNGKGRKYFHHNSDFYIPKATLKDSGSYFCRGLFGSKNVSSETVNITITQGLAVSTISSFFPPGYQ

FcgRIIa H = molecular target: T3, FcgRIIa H
FcgRIIIa V = FcgRIIIa V (human, UniProt P08637)
Sequence of FcgRIIIa V (P08637 17-208 F176V): as the sequence (P08637 17-208) above, with F160V counted along it

FcgRIa = molecular target: T4, FcgRIa

Kd (FcgRIIb) [nM]	Kd (FcgRIIa R) [nM]	Kd (FcgRIIIa F) [nM]	Kd (FcgRIIa H) [nM]	Kd (FcgRIIIa V) [nM]	Kd (FcgRIa) [nM]	Binder
1300	230	3.3	69	1.3	0.033	H240-FA021/H240-FB084/L73-k0 (antibody) chain 1: QDQLVQSGAEVKKPGASVKVSCKASGFNIKDTYIQWVRQAPGQGLEWMGRIDPLRKQTKYREKFEGRVTITADTSTNTAYMELSSLRSEDTAVYYCVRSGREFDYWGQGTLVTVSSASTKGPSVFPLAPSSKSTSGGTAALGCLVKDYFPEPVTVSWNSGALTSGVHTFPAVLQSSGLYSLSSVVTVPSSSLGTKTYTCNVNHKPSNTKVDKKVEPKSCDKTHTCPPCPAPEYYWGPSVFLFPPKPKDTLMISRTPEVTCVVVDVSDEEPEVKFNWYVDGVEVHNAKTKPREEQYNATYRVVSVLTVLHQDWLNGKEYKCKVSNKALPAPIEKTISKAKGQPREPQVYTLPPSRKEKTKNQVSLTCLVKGFYPSDIAVEWESNGQPENNYKTTPPKLDSDGSFFLYSKLTVDKSRWQQGNVFSCSVMHEALHNRYTQKSLSLSP chain 2: QDQLVQSGAEVKKPGASVKVSCKASGFNIKDTYIQWVRQAPGQGLEWMGRIDPLRKQTKYREKFEGRVTITADTSTNTAYMELSSLRSEDTAVYYCVRSGREFDYWGQGTLVTVSSASTKGPSVFPLAPSSKSTSESTAALGCLVEDYFPEPVTVSWNSGALTSGVHTFPAVLQSSGLYSLSSVVTVPSSNFGTQTYTCNVDHKPSNTKVDKTVEPKSCDKTHTCPPCPAPELLGGPSVFLFPPKPKDTLMISRTPEVTCVVVDVSHEEPEVQFNWYVDGVEVHNAETKPREEQYNSTYRVVSVLTVLHQDWLNGKEYKCKVSNDALPMPIEETISKAKGQPREPQVYTLPPSREEMTKNQVSLTCLVKGFYPSDIAVEWESEGQPENNYKTTPPVLDSDGSFFLYSKLTVDKSRWQQGNVFSCSVMHEALHNHYTQESLSLSP chain 3: DIQMTQSPSSLSASVGDRVTITCRASQDIHKYIAWYQQKPGQAPRLLIQYTSTLQPGVPSRFSGSGSGTDYTFTISSLQPEDIATYYCLQYEQLRTFGGGTKVEIKRTVAAPSVFIFPPSDEQLKSGTASVVCLLNNFYPREAKVQWKVDNALQSGNSQESVTEQDSKDSTYSLSSTLTLSKADYEKHKVYACEVTHQGLSSPVTKSFNRGEC
1300	250	4.3	69	1.1	0.17	H240-FA009/H240-FB001/L73-k0 (antibody) chain 1: QDQLVQSGAEVKKPGASVKVSCKASGFNIKDTYIQWVRQAPGQGLEWMGRIDPLRKQTKYREKFEGRVTITADTSTNTAYMELSSLRSEDTAVYYCVRSGREFDYWGQGTLVTVSSASTKGPSVFPLAPSSKSTSGGTAALGCLVKDYFPEPVTVSWNSGALTSGVHTFPAVLQSSGLYSLSSVVTVPSSSLGTKTYICNVNHKPSNTKVDKKVEPKSCDKTHTCPPCPAPEYYWGPSVFLFPPKPKDTLMISRTPEVTCVVVDVSDEEPEVKFNWYVDGVEVHNAKTKPREEQYNATYRVVSVLTVLHQDWLNGKEYKCKVSNKALPAPIEKTISKAKGQPREPQVYTLPPSRKEMTKNQVSLTCLVKGFYPSDIAVEWESNGQPENNYKTTPPVLDSDGSFFLYSKLTVDKSRWQQGNVFSCSVMHEALHNRYTQKSLSLSP chain 2: QDQLVQSGAEVKKPGASVKVSCKASGFNIKDTYIQWVRQAPGQGLEWMGRIDPLRKQTKYREKFEGRVTITADTSTNTAYMELSSLRSEDTAVYYCVRSGREFDYWGQGTLVTVSSASTKGPSVFPLAPSSKSTSGGTAALGCLVKDYFPEPVTVSWNSGALTSGVHTFPAVLQSSGLYSLSSVVTVPSSSLGTQTYICNVNHKPSNTKVDKKVEPKSCDKTHTCPPCPAPELLGGPSVFLFPPKPKDTLMISRTPEVTCVVVDVSHEEPEVQFNWYVDGVEVHNAKTKPREEQYNSTYRVVSVLTVLHQDWLNGKEYKCKVSNDALPMPIEETISKAKGQPREPQVYTLPPSREEMTKNQVSLTCLVKGFYPSDIAVEWESNGQPENNYKTTPPVLDSDGSFFLYSKLTVDKSRWQQGNVFSCSVMHEALHNHYTQESLSLSP chain 3: DIQMTQSPSSLSASVGDRVTITCRASQDIHKYIAWYQQKPGQAPRLLIQYTSTLQPGVPSRFSGSGSGTDYTFTISSLQPEDIATYYCLQYEQLRTFGGGTKVEIKRTVAAPSVFIFPPSDEQLKSGTASVVCLLNNFYPREAKVQWKVDNALQSGNSQESVTEQDSKDSTYSLSSTLTLSKADYEKHKVYACEVTHQGLSSPVTKSFNRGEC
1900	330	4.7	110	1.3	0.095	H240-FA024/H240-FB064/L73-k0 (antibody) chain 1: QDQLVQSGAEVKKPGASVKVSCKASGFNIKDTYIQWVRQAPGQGLEWMGRIDPLRKQTKYREKFEGRVTITADTSTNTAYMELSSLRSEDTAVYYCVRSGREFDYWGQGTLVTVSSASTKGPSVFPLAPSSKSTSGGTAALGCLVKDYFPEPVTVSWNSGALTSGVHTFPAVLQSSGLYSLSSVVTVPSSSLGTKTYTCNVNHKPSNTKVDKKVEPKSCDKTHTCPPCPAPEYYWGPSVFLFPPKPKDTLMISRTPEVTCVVVDVSDEEPKVKFNWYVDGVEVHNAKTKPREEQYNATYRVVSVLTVLHQDWLNGKEYKCKVSNKALPAPIEKTISKAKGQPREPQVYTLPPSRKEKTKNQVSLTCLVKGFYPSDIAVEWESNGQPENNYKTTPPVLDSDGSFFLYSKLTVDKSRWQQGNVFSCSVMHEALHNRYTQKSLSLSP chain 2: QDQLVQSGAEVKKPGASVKVSCKASGFNIKDTYIQWVRQAPGQGLEWMGRIDPLRKQTKYREKFEGRVTITADTSTNTAYMELSSLRSEDTAVYYCVRSGREFDYWGQGTLVTVSSASTKGPSVFPLAPSSKSTSESTAALGCLVKDYFPEPVTVSWNSGALTSGVHTFPAVLQSSGLYSLSSVVTVPSSNFGTQTYTCNVDHKPSNTKVDKTVEPKSCDKTHTCPPCPAPELLGGPSVFLFPPKPKDTLMISRTPEVTCVVVDVSHEEPEVQFNWYVDGVEVHNAKTKPREEQYNSTYRVVSVLTVLHQDWLNGKEYKCKVSNDALPMPIEETISKAKGQPREPQVYTLPPSREEMTKNQVSLTCLVKGFYPSDIAVEWESNGQPENNYKTTPPVLDSDGSFFLYSKLTVDKSRWQQGNVFSCSVMHEALHNHYTQESLSLSP chain 3: DIQMTQSPSSLSASVGDRVTITCRASQDIHKYIAWYQQKPGQAPRLLIQYTSTLQPGVPSRFSGSGSGTDYTFTISSLQPEDIATYYCLQYEQLRTFGGGTKVEIKRTVAAPSVFIFPPSDEQLKSGTASVVCLLNNFYPREAKVQWKVDNALQSGNSQESVTEQDSKDSTYSLSSTLTLSKADYEKHKVYACEVTHQGLSSPVTKSFNRGEC
